From patent US20240270846A1 (published 2024)
Numbering of substitutions follows the chain as printed. Names and notes keep the numbering of the source. Values belong to the binder of their own block, whether it stands above or below them.

Legend:
[1] = molecular target: T1, CD3 epsilon homodimer protein (UniProt P07766 23-126); assay: SPR Biacore T200, CD3 epsilon homodimer on chip, antibody as analyte;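 also: homodimer amine-coupled to a CM4 sensor chip, run at 25 °C in HBS-EP+ buffer, with kinetic parameters derived in Biacore T200 Evaluation Software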
T1 construct: also called CD3 (CD3 epsilon)
T1 sequence (P07766 23-126): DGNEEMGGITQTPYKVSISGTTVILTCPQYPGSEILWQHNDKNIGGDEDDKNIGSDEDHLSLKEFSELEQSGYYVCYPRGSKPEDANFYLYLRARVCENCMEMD

[2] = molecular target: T2, CD3 epsilon homodimer protein (UniProt P07766 23-126); assay: SPR Biacore T200, CD3 epsilon homodimer immobilized; vs unaltered GLS3000;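 also: antibody variants flowed as analyte over CD3 epsilon homodimer amine-coupled to a CM4 chip, at 25 °C in HBS-EP+ running buffer, fitted with Biacore T200 Evaluation Software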
T2 construct: construct not described; homodimer as printed; also called CD3 (CD3 epsilon)
T2 sequence (P07766 23-126): as above

KD ratio (KD of CE115HA000 / KD of altered form) [1]: 0.82
B1: CE115HA000 H chain altered form S52cV (antibody, human IgG1, kappa, L234A L235A, N297A, name in Kabat numbering)
heavy: QVQLVESGGGVVQPGRSLRLSCAASGFTFSNAWMHWVRQAPGKGLEWVAQIKAKVNNYATYYAESVKGRFTISRDDSKNSLYLQMNSLKTEDTAVYYCRYVHYGAYYGVDAWGQGTTVTVSSASTKGPSVFPLAPSSKSTSGGTAALGCLVKDYFPEPVTVSWNSGALTSGVHTFPAVLQSSGLYSLSSVVTVPSSSLGTQTYICNVNHKPSNTKVDKKVEPKSCDKTHTCPPCPAPEAAGGPSVFLFPPKPKDTLMISRTPEVTCVVVDVSHEDPEVKFNWYVDGVEVHNAKTKPREEQYASTYRVVSVLTVLHQDWLNGKEYKCKVSNKALPAPIEKTISKAKGQPREPQVYTLPPSRCELTKNQVSLSCAVKGFYPSDIAVEWESNGQPENNYKTTPPVLDSDGSFFLVSKLTVDKSRWQQGNVFSCSVMHEALHNHYTQKSLSLSPDYKDDDDK
chain: EPKSSDKTHTCPPCPAPELLGGPSVFLFPPKPKDTLMISRTPEVTCVVVDVSHEDPEVKFNWYVDGVEVHNAKTKPREEQYNSTYRVVSVLTVLHQDWLNGKEYKCKVSNKALPAPIEKTISKAKGQPREPQVCTLPPSRDELTKNQVSLWCLVKGFYPSDIAVEWESNGQPENNYKTTPPVLDSDGSFFLYSKLTVDKSRWQQGNVFSCSVMHEALHNRYTQKSLSLSP
light: DIVMTQSPLSLPVTPGEPASISCRSSQSLVHSNRNTYLHWYQQKPGQAPRLLIYKVSNRFSGVPDRFSGSGSGTDFTLKISRVEAEDVGVYYCGQGTQVPYTFGQGTKLEIKRTVAAPSVFIFPPSDEQLKSGTASVVCLLNNFYPREAKVQWKVDNALQSGNSQESVTEQDSKDSTYSLSSTLTLSKADYEKHKVYACEVTHQGLSSPVTKSFNRGEC
notes: one-arm antibody

KD ratio (KD of CE115HA000 / KD of altered form) [1]: 1.06
B3: CE115HA000 H chain altered form Y58A (antibody, human IgG1, kappa, L234A L235A, N297A, name in Kabat numbering)
heavy: B1 heavy with V55S, Y61A
chain: B1 chain
light: B1 light
notes: one-arm antibody

KD ratio (KD of CE115HA000 / KD of altered form) [1]: 1.24
B4: CE115HA000 H chain altered form Y58Q (antibody, human IgG1, kappa, L234A L235A, N297A, name in Kabat numbering)
heavy: B1 heavy with V55S, Y61Q
chain: B1 chain
light: B1 light
notes: one-arm antibody

KD ratio (KD of CE115HA000 / KD of altered form) [1]: 0.66
B8: CE115HA000 H chain altered form W33F (antibody, human IgG1, kappa, L234A L235A, N297A, name in Kabat numbering)
heavy: B1 heavy with W33F, V55S
chain: B1 chain
light: B1 light
notes: one-arm antibody

KD ratio to GLS3000 (Affinity up) [2]: 13600
B9: GLS3000 H27dD (Kabat) L chain altered form, one-arm antibody with CE115HA000 (antibody, human IgG1, kappa, L234A L235A, N297A, name in Kabat numbering)
heavy: B1 heavy with V55S
chain: B1 chain
light: B1 light with H31D
notes: one-arm antibody

KD ratio (KD of CE115HA000 / KD of altered form) [1]: 0.83
B11: CE115HA000 H chain altered form V11L (antibody, human IgG1, kappa, L234A L235A, N297A, name in Kabat numbering)
heavy: B1 heavy with V11L, V55S
chain: B1 chain
light: B1 light
notes: one-arm antibody

KD ratio (KD of CE115HA000 / KD of altered form) [1]: 0.87
B13: CE115HA000 H chain altered form S52cY (antibody, human IgG1, kappa, L234A L235A, N297A, name in Kabat numbering)
heavy: B1 heavy with V55Y
chain: B1 chain
light: B1 light
notes: one-arm antibody

KD ratio (KD of CE115HA000 / KD of altered form) [1]: 0.61
B14: CE115HA000 H chain altered form Y59E (antibody, human IgG1, kappa, L234A L235A, N297A, name in Kabat numbering)
heavy: B1 heavy with V55S, Y62E
chain: B1 chain
light: B1 light
notes: one-arm antibody

KD ratio (KD of CE115HA000 / KD of altered form) [1]: 0.79
B16: CE115HA000 H chain altered form T28S (antibody, human IgG1, kappa, L234A L235A, N297A, name in Kabat numbering)
heavy: B1 heavy with T28S, V55S
chain: B1 chain
light: B1 light
notes: one-arm antibody

KD ratio (KD of CE115HA000 / KD of altered form) [1]: 5.65
B17: CE115HA000 H chain altered form Y55S (antibody, human IgG1, kappa, L234A L235A, N297A, name in Kabat numbering)
heavy: B1 heavy with V55S, Y58S
chain: B1 chain
light: B1 light
notes: one-arm antibody

KD ratio (KD of CE115HA000 / KD of altered form) [1]: 0.66
B19: CE115HA000 H chain altered form Y58K (antibody, human IgG1, kappa, L234A L235A, N297A, name in Kabat numbering)
heavy: B1 heavy with V55S, Y61K
chain: B1 chain
light: B1 light
notes: one-arm antibody

KD ratio to GLS3000 (Affinity up) [2]: 42.3
B20: GLS3000 H27dE (Kabat) L chain altered form, one-arm antibody with CE115HA000 (antibody, human IgG1, kappa, L234A L235A, N297A, name in Kabat numbering)
heavy: B1 heavy with V55S
chain: B1 chain
light: B1 light with H31E
notes: one-arm antibody

KD ratio (KD of CE115HA000 / KD of altered form) [1]: 1.21
B23: CE115HA000 H chain altered form Y58L (antibody, human IgG1, kappa, L234A L235A, N297A, name in Kabat numbering)
heavy: B1 heavy with V55S, Y61L
chain: B1 chain
light: B1 light
notes: one-arm antibody

KD ratio (KD of CE115HA000 / KD of altered form) [1]: 4.96
B25: CE115HA000 H chain altered form W33H (antibody, human IgG1, kappa, L234A L235A, N297A, name in Kabat numbering)
heavy: B1 heavy with W33H, V55S
chain: B1 chain
light: B1 light
notes: one-arm antibody

KD ratio (KD of CE115HA000 / KD of altered form) [1]: 0.79
B29: CE115HA000 H chain altered form Y59S (antibody, human IgG1, kappa, L234A L235A, N297A, name in Kabat numbering)
heavy: B1 heavy with V55S, Y62S
chain: B1 chain
light: B1 light
notes: one-arm antibody

KD ratio (KD of CE115HA000 / KD of altered form) [1]: 4.81
B33: CE115HA000 H chain altered form Y58D (antibody, human IgG1, kappa, L234A L235A, N297A, name in Kabat numbering)
heavy: B1 heavy with V55S, Y61D
chain: B1 chain
light: B1 light
notes: one-arm antibody

Second part, the binder before the results:

B2: GLS3000 H27dA (Kabat) L chain altered form, one-arm antibody with CE115HA000 (antibody, human IgG1, kappa, L234A L235A, N297A, name in Kabat numbering)
heavy: B1 heavy with V55S
chain: B1 chain
light: B1 light with H31A
notes: one-arm antibody
KD ratio to GLS3000 (Affinity up) [2]: 2.57

B5: CE115HA000 H chain altered form W33D (antibody, human IgG1, kappa, L234A L235A, N297A, name in Kabat numbering)
heavy: B1 heavy with W33D, V55S
chain: B1 chain
light: B1 light
notes: one-arm antibody
KD ratio (KD of CE115HA000 / KD of altered form) [1]: 1690

B6: CE115HA000 H chain altered form T57K (antibody, human IgG1, kappa, L234A L235A, N297A, name in Kabat numbering)
heavy: B1 heavy with V55S, T60K
chain: B1 chain
light: B1 light
notes: one-arm antibody
KD ratio (KD of CE115HA000 / KD of altered form) [1]: 1.22

B7: CE115HA000 H chain altered form T57A (antibody, human IgG1, kappa, L234A L235A, N297A, name in Kabat numbering)
heavy: B1 heavy with V55S, T60A
chain: B1 chain
light: B1 light
notes: one-arm antibody
KD ratio (KD of CE115HA000 / KD of altered form) [1]: 0.87

B10: CE115HA000 H chain altered form Y59A (antibody, human IgG1, kappa, L234A L235A, N297A, name in Kabat numbering)
heavy: B1 heavy with V55S, Y62A
chain: B1 chain
light: B1 light
notes: one-arm antibody
KD ratio (KD of CE115HA000 / KD of altered form) [1]: 0.74

B12: CE115HA000 H chain altered form T57I (antibody, human IgG1, kappa, L234A L235A, N297A, name in Kabat numbering)
heavy: B1 heavy with V55S, T60I
chain: B1 chain
light: B1 light
notes: one-arm antibody
KD ratio (KD of CE115HA000 / KD of altered form) [1]: 0.81

B15: CE115HA000 H chain altered form Y59D (antibody, human IgG1, kappa, L234A L235A, N297A, name in Kabat numbering)
heavy: B1 heavy with V55S, Y62D
chain: B1 chain
light: B1 light
notes: one-arm antibody
KD ratio (KD of CE115HA000 / KD of altered form) [1]: 0.66

B18: CE115HA000 H chain altered form Y55D (antibody, human IgG1, kappa, L234A L235A, N297A, name in Kabat numbering)
heavy: B1 heavy with V55S, Y58D
chain: B1 chain
light: B1 light
notes: one-arm antibody
KD ratio (KD of CE115HA000 / KD of altered form) [1]: 0.89

B21: CE115HA000 H chain altered form T57N (antibody, human IgG1, kappa, L234A L235A, N297A, name in Kabat numbering)
heavy: B1 heavy with V55S, T60N
chain: B1 chain
light: B1 light
notes: one-arm antibody
KD ratio (KD of CE115HA000 / KD of altered form) [1]: 0.9

B22: CE115HA000 H chain altered form W33L (antibody, human IgG1, kappa, L234A L235A, N297A, name in Kabat numbering)
heavy: B1 heavy with W33L, V55S
chain: B1 chain
light: B1 light
notes: one-arm antibody
KD ratio (KD of CE115HA000 / KD of altered form) [1]: 56600

B24: GLS3000 F55A (Kabat) L chain altered form, one-arm antibody with CE115HA000 (antibody, human IgG1, kappa, L234A L235A, N297A, name in Kabat numbering)
heavy: B1 heavy with V55S
chain: B1 chain
light: B1 light with F60A
notes: one-arm antibody
KD ratio to GLS3000 (Affinity up) [2]: 1.16

B26: CE115HA000 H chain altered form Y58S (antibody, human IgG1, kappa, L234A L235A, N297A, name in Kabat numbering)
heavy: B1 heavy with V55S, Y61S
chain: B1 chain
light: B1 light
notes: one-arm antibody
KD ratio (KD of CE115HA000 / KD of altered form) [1]: 1.22

B27: CE115HA000 H chain altered form T28D (antibody, human IgG1, kappa, L234A L235A, N297A, name in Kabat numbering)
heavy: B1 heavy with T28D, V55S
chain: B1 chain
light: B1 light
notes: one-arm antibody
KD ratio (KD of CE115HA000 / KD of altered form) [1]: 0.93

B28: CE115HA000 H chain altered form Y58N (antibody, human IgG1, kappa, L234A L235A, N297A, name in Kabat numbering)
heavy: B1 heavy with V55S, Y61N
chain: B1 chain
light: B1 light
notes: one-arm antibody
KD ratio (KD of CE115HA000 / KD of altered form) [1]: 1.86

B30: CE115HA000 H chain altered form Y55G (antibody, human IgG1, kappa, L234A L235A, N297A, name in Kabat numbering)
heavy: B1 heavy with V55S, Y58G
chain: B1 chain
light: B1 light
notes: one-arm antibody
KD ratio (KD of CE115HA000 / KD of altered form) [1]: 0.99

B31: CE115HA000 H chain altered form W33Y (antibody, human IgG1, kappa, L234A L235A, N297A, name in Kabat numbering)
heavy: B1 heavy with W33Y, V55S
chain: B1 chain
light: B1 light
notes: one-arm antibody
KD ratio (KD of CE115HA000 / KD of altered form) [1]: 0.69

B32: CE115HA000 H chain altered form W33A (antibody, human IgG1, kappa, L234A L235A, N297A, name in Kabat numbering)
heavy: B1 heavy with W33A, V55S
chain: B1 chain
light: B1 light
notes: one-arm antibody
KD ratio (KD of CE115HA000 / KD of altered form) [1]: 30
